Assay results as given in doi:10.1101/2020.01.22.914192, “CryoEM structures of human CMG - ATPγS - DNA and CMG - AND-1 complexes”.

Target: CMG helicase (Cdc45-MCM2-7-GINS) (human, UniProt P49736;P25205;P33991;P33992;Q14566;P33993;O75419;Q14691;Q9Y248;Q9BRX5;Q9BRT9 …)
Assay: cryoEM structure (3.29 A); ATPgS 100 uM; 5 mM Mg acetate; ATPgS/Mg2+ at MCM6, 4, 7; ADP at MCM2, 3; MCM5 site empty; Buffer S: 25 mM Hepes pH 7.5, 50 mM KCl, 5 mM Mg acetate, 2 mM DTT, 100 uM ATPgS; 4 uM fork DNA applied to StrepTrap-bound CMG, eluted with 15 mM desthiobiotin; binding temperature not stated (stored overnight at 4 C)
Settings: protein: recombinant; tags: MCM4 N-terminal His8-TEV; Psf2 C-terminal TEV-2xStrepII; copies: 1;1;1;1;1;1;1;1;1;1;1; fork: 40 bp duplex, 30 nt 3' poly-dT tail (strand 1) and 30 nt 5' GC-rich tail (strand 2)

B1: fork DNA 70T/70GC (dsDNA)
DNA 1: CGTTTTACAACGTCGTGACTGGGCACTTGATCGGCCAACCTTTTTTTTTTTTTTTTTTTTTTTTTTTTTT
DNA 2: CAGGCAGGCAGGCAGGCAGGCAGGCAGGCAGGTTGGCCGATCAAGTGCCCAGTCACGACGTTGTAAAACG
B1: binds.
